± gives the uncertainty stated by the source.
B1: Homeobox protein SIX3, residues 212 to 262; numbered along this chain, O95343 (parent)
chain: CFKERTRSLLREWYLQDPYPNPSKKRELAQATGLTPTQVGNWFKNRRQRDR

Variants of: B1
Assay: abundance fitness (aPCA) (normalised: wild type 0, dead -1); higher = more abundant; growth selection in yeast, the domain comes from the species named
Settings: Homo sapiens

Abundance fitness of substitutions, site by site:
S23: K -0.512 ± 0.19; E 0.002 ± 0.08; T -0.005 ± 0.075; D 0.175 ± 0.064; C -0.166 ± 0.17; N -0.249 ± 0.08; Q -0.022 ± 0.11; V -0.094 ± 0.064; P -0.341 ± 0.12; Y -0.761 ± 0.23; A 0.072 ± 0.076; W -0.729 ± 0.15; G -0.079 ± 0.056; H -0.356 ± 0.059; L -0.342 ± 0.059; M -0.277 ± 0.14; F -0.343 ± 0.11; R -0.551 ± 0.074
R7: E -0.181 ± 0.11; I 0.083 ± 0.19; G -0.261 ± 0.075; H 0.238 ± 0.49; Q -0.137 ± 0.2; D -0.26 ± 0.18; V -0.03 ± 0.043; S 0.006 ± 0.078; P -0.702 ± 0.18; F -0.419 ± 0.3; L -0.272 ± 0.096; N 0.188 ± 0.15; W -0.091 ± 0.12; Y 0.033 ± 0.15; T -0.403 ± 0.2; M -0.128 ± 0.11
E4: R -0.708 ± 0.06; M -0.178 ± 0.25; V -0.651 ± 0.071; D -0.532 ± 0.47; S -0.136 ± 0.065; W -0.684 ± 0.16; K -0.152 ± 0.14; Y -0.441 ± 0.28; C -0.685 ± 0.21; L -0.605 ± 0.17; N -0.357 ± 0.42; G -0.532 ± 0.13; F -0.226 ± 0.31; A -0.931 ± 0.2
K3: A -0.3 ± 0.037; Y -0.262 ± 0.095; N 0.165 ± 0.069; R -0.275 ± 0.047; S -0.106 ± 0.1; T -0.134 ± 0.11; Q -0.216 ± 0.2; M -0.624 ± 0.2; H -0.72 ± 0.4; V -0.655 ± 0.12; E 0.074 ± 0.062; P -0.39 ± 0.071; D -0.037 ± 0.068; I -0.362 ± 0.18; C 0.158 ± 0.12
L9: D -0.825 ± 0.13; P -0.644 ± 0.1; V -0.071 ± 0.052; F -0.51 ± 0.22; N -0.8 ± 0.15; C -0.694 ± 0.18; T -0.138 ± 0.054; G -0.726 ± 0.05; R -0.369 ± 0.063; S -0.733 ± 0.074; A -0.43 ± 0.064; W -0.632 ± 0.05; E -0.481 ± 0.066; I -0.095 ± 0.084; Y -0.001 ± 0.11; Q -0.266 ± 0.067; K -0.226 ± 0.073; H -0.417 ± 0.16; M -0.199 ± 0.11
S8: K 0.048 ± 0.061
D17: K -0.665 ± 0.12; C -0.78 ± 0.27; S -0.627 ± 0.07; I -0.927 ± 0.38; N -0.599 ± 0.097; E -0.204 ± 0.078; R -0.907 ± 0.13; T -0.844 ± 0.061; Q -0.814 ± 0.18; H -1.04 ± 0.23; G -0.834 ± 0.067; P -0.753 ± 0.19; V -0.878 ± 0.11; M -0.81 ± 0.14; Y -1 ± 0.41; F -0.82 ± 0.39; A -0.89 ± 0.14
W13: T -0.066 ± 0.072; N 0.097 ± 0.081; S -0.069 ± 0.079; Y -0.007 ± 0.056; I -0.153 ± 0.13; P -0.747 ± 0.16; M 0.012 ± 0.091; L -0.139 ± 0.076; K -0.399 ± 0.12; H -0.338 ± 0.15; A 0.015 ± 0.06; C -0.08 ± 0.059; F -0.545 ± 0.2; Q 0.026 ± 0.052; E -0.078 ± 0.056; D -0.527 ± 0.12; V -0.075 ± 0.052
N21: Q -0.553 ± 0.34; L -0.375 ± 0.049; T 0.224 ± 0.068; D 0.322 ± 0.086; V -0.14 ± 0.047; W -0.613 ± 0.077; P 0.027 ± 0.063; A -0.159 ± 0.052; I -0.433 ± 0.17; G -0.042 ± 0.057; Y -0.873 ± 0.1; F -0.499 ± 0.21; R -0.351 ± 0.057; K 0.23 ± 0.091; H -0.171 ± 0.097; S 0.078 ± 0.056; M -0.277 ± 0.067
E12: T -0.285 ± 0.056; I -0.618 ± 0.15; L -0.426 ± 0.06; M -0.282 ± 0.066; D -0.098 ± 0.072; K -0.314 ± 0.12; C -0.84 ± 0.2; G -0.3 ± 0.042; S -0.236 ± 0.083; F -0.45 ± 0.16; A -0.256 ± 0.075; W -0.185 ± 0.11; V -0.608 ± 0.099; N 0.23 ± 0.12; Y -0.09 ± 0.041; P -0.872 ± 0.12
Y14: T -0.946 ± 0.062; K -0.81 ± 0.14; E -0.893 ± 0.1; R -0.849 ± 0.075; A -0.896 ± 0.059; F -0.294 ± 0.091; G -0.833 ± 0.057; N -0.734 ± 0.16; Q -0.834 ± 0.17; W -0.711 ± 0.1; S -0.667 ± 0.066; D -1.14 ± 0.31; H -0.951 ± 0.1; I -0.746 ± 0.076; C -0.822 ± 0.17; P -0.672 ± 0.13; L -0.828 ± 0.056; M -0.891 ± 0.13
R5: N -0.225 ± 0.15; A -0.075 ± 0.09; I -0.418 ± 0.23; T -0.148 ± 0.091; G -0.102 ± 0.083; M -0.16 ± 0.1; D -0.18 ± 0.16; P -0.329 ± 0.13; S 0.187 ± 0.089; Y -0.455 ± 0.24; W -0.369 ± 0.12; H -0.522 ± 0.21; E -0.098 ± 0.095; K -0.394 ± 0.31; V 0.003 ± 0.059; Q -0.317 ± 0.093; C -0.359 ± 0.39; L -0.283 ± 0.1
P20: E -0.756 ± 0.12; A -0.425 ± 0.14; F -0.799 ± 0.11; C -0.486 ± 0.29; Q -0.812 ± 0.39; K -0.977 ± 0.17; S -1.05 ± 0.3; R -0.819 ± 0.062; D -0.845 ± 0.13; G -0.764 ± 0.055; N -0.912 ± 0.31; T -0.838 ± 0.23; M -0.663 ± 0.17; L -0.339 ± 0.1; W -1.13 ± 0.18; Y -0.707 ± 0.075; V -0.477 ± 0.081
L10: E -0.886 ± 0.084; H -0.868 ± 0.16; M -0.381 ± 0.11; N -0.724 ± 0.28; V -1.01 ± 0.17; P -0.872 ± 0.093; W -1.03 ± 0.14; Q -0.972 ± 0.15; R -0.93 ± 0.077; Y -0.561 ± 0.36; C -0.88 ± 0.28; T -0.974 ± 0.23; F -0.824 ± 0.2; G -0.961 ± 0.16; S -0.647 ± 0.098; A -0.895 ± 0.058
L15: S -0.568 ± 0.32; D 0.114 ± 0.11; E -0.091 ± 0.16; V -0.22 ± 0.24; Q 0.08 ± 0.07; R 0.145 ± 0.1; M -0.309 ± 0.2; W -0.551 ± 0.35; C 0.756 ± 0.27; A 0.358 ± 0.093
Q16: E -0.302 ± 0.069; P -0.712 ± 0.29; S -0.285 ± 0.046; Y -0.382 ± 0.068; A -0.106 ± 0.046; G -0.564 ± 0.047; D -0.601 ± 0.38; I 0.251 ± 0.1; F -0.109 ± 0.099; W -0.327 ± 0.096; H -0.173 ± 0.14; T -0.249 ± 0.069; K -0.212 ± 0.12; M 0.13 ± 0.1; N -0.092 ± 0.13; R -0.076 ± 0.054
P18: F -0.672 ± 0.17; T -0.629 ± 0.14; A -0.226 ± 0.049; C -0.032 ± 0.082; Q -0.286 ± 0.18; H -0.028 ± 0.17; K -0.136 ± 0.095; I -0.487 ± 0.13; G -0.906 ± 0.085; S -0.474 ± 0.055; L -0.903 ± 0.17; M -0.501 ± 0.11; R -0.182 ± 0.062; V -0.687 ± 0.062; E -0.717 ± 0.13
Y19: H -0.337 ± 0.14; W -0.374 ± 0.09; D -0.368 ± 0.17; L -0.352 ± 0.058; A -0.372 ± 0.081; R -0.184 ± 0.045; K -0.095 ± 0.1; E -0.591 ± 0.14; C -0.308 ± 0.082; N -0.313 ± 0.11; S -0.514 ± 0.076; T -0.278 ± 0.088; M -0.292 ± 0.11; F -0.089 ± 0.085; V -0.474 ± 0.048; P -0.85 ± 0.087; Q -0.426 ± 0.088; G -0.849 ± 0.07
T6: C -0.533 ± 0.2; Q -0.067 ± 0.21; N -0.409 ± 0.21; F -0.504 ± 0.059; M -0.115 ± 0.049; W -0.434 ± 0.079; E -0.287 ± 0.061; G -0.192 ± 0.082; L -0.16 ± 0.059; S -0.354 ± 0.091; I 0.288 ± 0.088; A -0.268 ± 0.078; H 0.086 ± 0.31; V 0.057 ± 0.046; R -0.401 ± 0.072; K -0.513 ± 0.26; Y -0.289 ± 0.3
F2: Y 0.079 ± 0.093; W -0.538 ± 0.1; T -0.106 ± 0.074
R11: E -0.047 ± 0.085; T 0.106 ± 0.077; F -0.061 ± 0.073; N -0.111 ± 0.071; Y -0.408 ± 0.24; H -0.227 ± 0.13; K -0.138 ± 0.093; L -0.026 ± 0.058; Q -0.23 ± 0.09; I 0.004 ± 0.075; C -0.392 ± 0.16; D -0.22 ± 0.058; V -0.141 ± 0.053; S -0.021 ± 0.059; A -0.131 ± 0.053; M 0.077 ± 0.065; W -0.07 ± 0.063; P -0.514 ± 0.15; G -0.302 ± 0.054
P22: K -0.445 ± 0.078; I -0.014 ± 0.05; E 0.055 ± 0.048; V 0.03 ± 0.058; C -0.359 ± 0.21; S -0.107 ± 0.05; R -0.362 ± 0.06; A -0.108 ± 0.061; N -0.232 ± 0.084; Q -0.212 ± 0.094; W 0.125 ± 0.087; D -0.195 ± 0.12; Y -0.102 ± 0.12; M -0.266 ± 0.11; L 0.156 ± 0.038; H -0.717 ± 0.42
K24: A 0.11 ± 0.074

Source: the Human Domainome abundance scans (Beltran et al. 2025)
